We go through 5 molecules from PMC7526519 (2020).

Test [1] has as its target SARS-CoV receptor binding domain (RBD), His-tagged (SARS-CoV, UniProt P59594 306-527). Description: SPR. A general note: SPR reads the build-up and loss of mass on a sensor chip optically.
For test [2], the target named is SARS-CoV-2 receptor binding domain (RBD), His-tagged (SARS-CoV-2, UniProt P0DTC2 319-541). In words: SPR.

B1: alpaca ACE2 ectodomain fused with mouse Fc (Fc fusion)
chain: QSTTEELAKTFLKEFNHEAEDRSYQSSLASWNYNTNITDENVQKMNDARAKWSTFYEEKSKAAKIYPLEEIENVTLKRQLQALQQSGASALSADKSKRLTTILNTMSSIYSSGEVCDPNNPQECLVLEPGLDDIMENSKDYNQRLWAWEGWRAEVGKQLRPLYEEYVVLKNEMARANNYEDYGDYWRGDYEVMWAGDYDYSRDQLMGDVEHTFAEIKPLYEHLHAYVRAKLMDAYPSRISPTGCLPAHLLGDMWGRFWTNLYSLTVPFGQKPNIDVTEAMENQSWDAKRIFKEAEKFFVSIGLPNMTQGFWDNSMLTEPGDGRKVVCHPTAWDLGKGDFRIKMCTKVTMDDFLTAHHEMGHIQYDMAYAIQPFLLRNGANEGFHEAVGEIMSLSAATPHYLKALGLLPADFYEDSETEINFLLKQALTIVGTLPFTYMLEKWRWMVFKGEIPKEQWMQKWWEMKREIVGVVEPLPHDETYCDPACLFHVAEDYSFIRYYTRTIYQFQFHEALCQIAKHEGPLYKCDISNSTEAGQKLLQMLSLGKSEPWTLALEALVGVKTMDVKPLLNYFEPLLTWLKDQNRNSFVGWSTDWTPYTDQSIKVRISLKSALGDKAYEWNDNEMYLFRSSLAYAMRNYFLTVQKQTILFGVEDVWVSDLKPRISFSFFVTSPKNVSDIIPRTEVEKAIRMSRSRINDAFRLDDNSLEFLGIQPTLGPPYEPP
Consider B1, for which, in test [1], the affinity, expressed as Kd, was 54.9 nM.

B2: wild Bactrian camel ACE2 ectodomain fused with mouse Fc (Fc fusion)
chain: QSTTEELAKTFLEEFNHEAEDLSYQSSLASWNYNTNITDENVQKMNDARAKWSTFYEEKSKTAKTYPLEEIQNVTLKRQLQALQQSGASALSADKSKRLTTVLSTMSTIYSSGEVCDPNNPQECLVLEPGLDDIMENSKDYNQRLWAWEGWRAEVGKQLRPLYEEYVVLKNEMARANNYEDYGDYWRGDYEVMWAGDYDYSRDQLMGDVEHTFAEIKPLYEHLHAYVRAKLMDVYPSHISPTGCLPAHLLGDMWGRFWTNLYSLTVPFGQKPNIDVTEAMENQSWDAKRIFKEAEKFFVSIGLPNMTQGFWDNSMLTEPGDGRKVVCHPTAWDLGKGDFRIKMCTKVTMDDFLTAHHEMGHIQYDMAYAIQPFLLRNGANEGFHEAVGEIMSLSAATPHYLKALGLLPADFYEDSETEINFLLKQALTIVGTLPFTYMLEKWRWMVFKGEIPKEQWMQKWWEMKREIVGVVEPLPHDETYCDPACLFHVAEDYSFIRYYTRTIYQFQFHEALCQIAKHEGPLYKCDISNSTEAGQKLLQMLSLGKSEPWTLALEGLVGVKTMDVKPLLNYFEPLLTWLKDQNRNSFVGWSTDWTPYTDQSIKVRISLKSALGDKAYEWNDNEMYLFQSSLAYAMRKYFLKVQNQTILFGVEDVWVSDLKPRISFSFFVTSPKNVSDIIPRTEVEEAIRMSRSRINDAFRLDDNSLEFLGIQPTLGPPYEPPVT
As for B2, the Kd – broadly, the free concentration of one partner at which half of the binding sites on the other are occupied at equilibrium, for simple one-to-one binding – came out at 272 nM in test [2] and 69.1 nM in test [1].

B3: horse ACE2 ectodomain fused with mouse Fc (Fc fusion)
chain: QSTTEDLAKTFLEKFNSEAEELSHQSSLASWSYNTNITDENVQKMNEAGARWSAFYEEQCKLAKTYPLEEIQNLTVKRQLQALQQSGSSVLSADKSKLNEILNTMSTIYSTGKVCNPSNPQECLLLEPGLDAIMENSKDYNQRLWAWEGWRSEVGKQLRPLYEEYVVLKNEMARANNYEDYGDYWRGDYEAEGPSGYDYSRDQLIEDVERTFAEIKPLYEHLHAYVRAKLMDTYPSHINPTGCLPAHLLGDMWGRFWTNLYSLTVPFGQKPNIDVTDAMVDQSWDAKRIFEEAEKFFVSVGLPNMTQGFWENSMLTEPGDGRKVVCHPTAWDLGKGDFRIKMCTKVTMDDFLTAHHEMGHIQYDMAYAVQPYLLRNGANEGFHEAVGEIMSLSAATPNHLKAIGLLPPDFYEDSETEINFLLKQALTIVGTLPFTYMLEKWRWMVFKGEIPKEEWMKKWWEMKREIVGVVEPVPHDETYCDPAALFHVANDYSFIRYYTRTIYQFQFQEALCQTAKHEGPLHKCDISNSTEAGQKLLQMLSLGKSEPWTLALERIVGVKNMDVRPLLNYFEPLFTWLKDQNKNSFVGWSTNWSPYADQSIKVRISLKSALGEKSYEWNDNEMYLFQSSVAYAMRVYFLKAKNQTILFGEEDVWVSDLKPRISFNFFVTSPKNASDIIPRTDVEEAIRMSRSRINDAFRLDDNTLEFLGIQPTLGPPYQPPVT
As to B3, the Kd was determined as 133 nM in test [2] and 141 nM in test [1].

B4: fulvous fruit bat ACE2 ectodomain fused with mouse Fc (Fc fusion)
chain: QSTPEELAKTFLEKFNTEAEDLFYQSSLASWDFNTNIIDENVQKMSKARATWSAFYDEQSKLAKTYQLDEIQDPELKLQLRILQQSGSSTLSADKTKRLNDILNTMSTIYSTGKICQPNNSQECLLLEPGLDDIMENSKDYSQRLWAWESWRSEVGKQLRPYYEEYVVLKNEMARGENYEDYGDYWRGDYETEGINGSAYTRDQLIEDVDRIFTEIKPLYEQLHAYVRTKLMDAYPSHISPTGCLPAHLLGDMWGRFWINLYPLTVPFEQKPNIDVTDEMVNQNWNAKRIFKEAEKFFVSLGLPNMTETFWEKSVLTEPDNDQKVACHPTAWDLGKGDFRIIMCTKVKMEDFLTAHHEMGHIQYYMAYATQPYLLRDGANEGFHEAVGEVISLSVATPNHLKNMGLLPPDFYEDNETEINFLLKQALNVVGTLPFTYMLEKWRWMVFKGEIPKEQWMEKWWEMKRELVGVVEPLPHDETYCDPASLFHVANDYSFIRYYTRTIFEFQFLEALCQIAQHEGPLYKCDIANSTEAGKKLHQMLSLGKSKPWTLALESIAGTKNMDVRPLLNYFEPLFTWLKEKNRNSFVGWSTDWSPYSGQSIKVRISLKAALGEKAYEWNDNEMYLFKSSIAYSLREYFLKVKNLTIPFGEEDVWVSDLKPRISFNFFVTSPQNVSEFIPRTEVEGAIRMSRSRINDAFRLDDDTLEFLGIEPTLGTPYQPPVT
B4: the Kd came to 1130 nM in test [2] and 412 nM in test [1].

B5: cat ACE2 ectodomain fused with mouse Fc (Fc fusion)
chain: QSTTEELAKTFLEKFNHEAEELSYQSSLASWNYNTNITDENVQKMNEAGAKWSAFYEEQSKLAKTYPLAEIHNTTVKRQLQALQQSGSSVLSADKSQRLNTILNAMSTIYSTGKACNPNNPQECLLLEPGLDDIMENSKDYNERLWAWEGWRAEVGKQLRPLYEEYVALKNEMARANNYEDYGDYWRGDYEEEWTDGYNYSRSQLIKDVEHTFTQIKPLYQHLHAYVRAKLMDTYPSRISPTGCLPAHLLGDMWGRFWTNLYPLTVPFGQKPNIDVTDAMVNQSWDARRIFKEAEKFFVSVGLPNMTQGFWENSMLTEPGDSRKVVCHPTAWDLGKGDFRIKMCTKVTMDDFLTAHHEMGHIQYDMAYAVQPFLLRNGANEGFHEAVGEIMSLSAATPNHLKTIGLLSPGFSEDSETEINFLLKQALTIVGTLPFTYMLEKWRWMVFKGEIPKEQWMQKWWEMKREIVGVVEPVPHDETYCDPASLFHVANDYSFIRYYTRTIYQFQFQEALCRIAKHEGPLHKCDISNSSEAGKKLLQMLTLGKSKPWTLALEHVVGEKKMNVTPLLKYFEPLFTWLKEQNRNSFVGWNTDWRPYADQSIKVRISLKSALGDEAYEWNDNEMYLFRSSVAYAMREYFSKVKNQTIPFVEDNVWVSNLKPRISFNFFVTASKNVSDVIPRSEVEEAIRMSRSRINDAFRLDDNSLEFLGIQPTLSPPYQPPVT
For the molecule B5, the Kd in test [2] came out at 85.7 nM; in test [1] it was 69.9 nM.
